Results on one substance are retold here after patent US20230203124A1.

For assay [1], the target named is mutated ERBB2IP 25-AA long peptide presented by HLA-DQB1*0601 (human).
Assay [2] deals with mutated ALK 25-AA long peptide on autologous B cells (HLA-DQB1*0601) (human).
Assay [3] has as its target wild-type ERBB2IP 25-AA long peptide on autologous B cells (HLA-DQB1*0601) (human).

As to “Mock-transduced autologous open-repertoire peripheral blood T cells (cells without a defined receptor)”, the % IFN-γ+/mTCRβ- cells, intracellular IFN-γ by flow cytometry in assay [1] is 0%; in assay [2], 1%; in assay [3], 0%.
